Measurements reported in the DeepSol protein solubility set.

assay: soluble on expression in E. coli; label from the status in PepcDB or PDB records

Soluble on expression in E. coli, not soluble:
MGSDKIHHHHHHMSNYRNPHQLIITADDYGMCPEVNRAIEECLAAGALRATCVMTNMPAYTDADRLSKDFPSASIGIHWTLTAGTPVAPLSEVPDLVAPNGQFWPAAEFRQRWLSRRISPTQVVIELQAQHARFVELIGQPAFWNTHQNVHVLPRLFPLVVDLAHRLGIPAMRSHRRITAPRHSSTLRYYLTHPIYWLKGQIIARWAAAAEKRGLRMPAGVVSTPGFGPGKVAIDQIIARIPWPRRLPAELVIHPATRVIPGLFGGLTESRLREFEVFRDPTLVERLAAMGVQPVGFEVL
MGSDKIHHHHHHMSPLKSFLGVIYMNRSERLNQELIFLSYRQEFHIKELMQEFNISKRTALRDVNSLEQLGLSIYVEPGRYGGYQIMQQQLWVPILLNSQEINALFFALKALSLLSATPFEKSYHTIYKKLMATLSLSNQRQVAKLQRVVNYYSIPNLDAPTHLSDLLTAILDENVVQLTMTTVTAGFQIFDLLYRHGIWFFSGVNLDNNAWGIYRCDTIKVFQTSEQPARYTWKQLAQRQRSYDHHHHNIRYKCALTPPGREHVQKNNYPNMHLTHQNDQDYLIGGYNQDELAYMVDYLLGLGRNVRIIYPEALKTAYLQELQQIQDFY
MGSDKIHHHHHHMSQTLEQVIQNAGDLVNFVRNQQVGPNVYPGVPAEYSNWRNEQWAWAHSAVLYNQSYHMVDLAVKGPDAFKMLEHLGINSFKNFQPDRAKQFVPVTPDGYVIGDVILFYLDENHFNLVGRAPTIEWVEYHAASGNWNVTVERDERWAMRTDGKRNSYRFQIQGPNAMKIIEKATGKTAPDLKFFHMTRMTIGGKEVRALRHGMAGQPGFELMGPWEDYGAVHAALVEAGKGFQMALVGGRAYSSNTLESGWIPSPFPAIYTGEALRPYREWLSANSYEAKCSVGGSYVPETIEGYYTTPWDLGYGPFVKFDHDFIGRAALEKMAAEGKHRTKVTLALDNEDVMRVQSSALSKGDRAKFMEYPSAVYSMHPFDQVLADGKMVGLSTWIGYTANEGKFLTLAMMEPGYVEPGTQVSLLWGEPNGGTTKPTVEPHVQTEIKATVAAVPYSEVARDSYAEGWRTKK
MGSDKIHHHHHHMSRFAACFEDLPDPRGRNARHPLTSILFIAVAAIVCGAESCTDMADFGVAKKKWLKTIVPLPYGIPSHDTFSTVFRHLDPDAFDAAFRRLTASFAQGLEGVVAIDGKAVRGAYRRAAKATPLHFVNVWAAGPGLVIGQKLAPGRNEVQGALDALALLALEGSIVTADALHCRPDTARAILAAGGDYALALKANQPGLLAQALARIEDADHVESIQIAAETAHDRTETRRASVVAVDDINFPGLQAIGCVETTSRHTNGHLTSHVRYFLLSTTMSPSALIEVVRTHWQIENKLHWVLDVHFREDAARNRKDNGPQNIAFLRKIALNLLRSHPDKASIRRKIKKAGWDDQFLTSLIAHMR
MGSDKIHHHHHHMSRILNTEIIIPIIEKLVKKACYELDDNLMCSFRKAYDKEESKIGKETIKILIDNGEYAKKEQLACCHDTGTCIVIMEIGQHVCWEGKPLKDQVNQGVRQGYENGYLRKSMVADPLERINTNDNTPAILHTEIVDGDRVTITVMPKGGGSENMGTFKTLLPGDGIDGIKDFVLETVRRVGGNPCPPYIIGIGVGGTMDHCSWMAKKALLRPLGEFNAKPLYAQLEAELLEAVNNTGIGPLGMGGRITALGVHVDYYPCHITALPVAINFQCNASRHASEII
MGSDKIHHHHHHMSRLAHNKALPYKIIVDLSFHRTRLPSDVSSLIKFEQRPAIINIHGLLGSHVMFHSLNKLLSRKLDADIFSVDVRNHGISPKAIPYDYTTLTNDLIYFIETHIGLERPIYLLGFSMGGKIALLTTLYKNINIRKCISIDLPPYETPELDPMILQNYDLIMRIIRRDVKILRGSPSWQKKVLELFKSLECNKRKCGGAVALYFANGFLSVKSNNVHQAQLHYEQQQHDPYINYSMPLSSMPNLLDEVKKWPDLSNQRDFFQKGTASRKVLFMKGLQSNFINNDYSLLRYNFPCADVREFNTGHNLLLENPEDSFKCILNFFAEETLDFE
MGSDKIHHHHHHMSRLSTAPWGPVLKSVPTAAHWSLRPWCLSISLSANSEAMNKMQTEKLITPFAHALQHEHGVWGLIDQMKAVTHFLDEELERDRIRNLGIADASFLRKFGAKGTYAAQWLEAQGVVIPTRPNSWAQAADGSLALRLGNSEFLIEDVPGGTSCDRLAQACAGARGVYPVPHVEASFVISGHAVQALFSEVCSIDLTHASLGAQDVVMTQFAGVSVVLIRQDLKEEESLYRLWCDSSYGSYLWEVIAGIAHEHKGGPVGIGRYFASCP
MGSDKIHHHHHHMSRRHYNLPPLTTLTAFEAAARHLSFKDAAKELSVTPGAVSHQVKALEGELGVALFRRKHRGVDLTVPGQTLYDTLAGSLTRISQSLQSIRDQSSAGVVTVGSTTAMAAMWLSPAVIRFWRDHPEININQVVRDRAFTTSAELDLYIWYGREKDQRLDQFPLYRDRLLPVAAPERAAELAGADLDVLASQRLIHLEGDDISWTKWHDWFRQLGYSGPVASGIRVNNYSIALQAARDGAGLTLGWERLISPLITQGDLAIIGPHVLPAPERFFLVSKPDEELTPSARLLRDWIIEEASQITDEPC
MGSDKIHHHHHHMSSLQISQGTFRLSDTKTLKIDHLSVAAGESWAFVGSNGSGKSALARALAGDLPLLSGQRESHFSRVTRLSFEQLQKLVSDEWQRNNTDLLSPGEEDTGRTTAEIIQDEVKDPARCARLAEQFGISALLDRRFKYLSTGETRKTLLCQALMTDPQLLILDEPFDGLDVNSRQQLAALLADLHSAGITLVLVLNRFDEIPEFVQFAGVLADCTLSETGEKSSLLQQALVAQLAHSEKLDGITLPEPDVPPARHALADSAPRIVLNDGVVSYNDRPVINHLSWTVNPGEHWQIVGPNGAGKSTLLSLVTGDHPQGYSNDLTLFGRRRGSGETIWDIKKHIGYVSSSLHLDYRVSTNVRNVILSGYFDSIGIYQAVSDKQHKLVQQWLDILGIDKRTADAPFHSLSWGQQRLALIVRALVKHPTLLILDEPLQGLDPLNRQLVRRFVDVLIGEGATQLLFVSHHAEDAPDCITHRLAFVPSGDGYTYQLGPVA
MGSDKIHHHHHHMSSRAFSTVAVTDAFFTLVAPVAKNSARIVIIVNSVSTGKNHPQMVALQQTVQQLGYAHVQLLDVLTDDLAALNTATVIILNGGYEFLLLKNLRETHVLERLRTLALAGKPIYGISAGAILLGPDLDLYVYLYPEDNTEQLASTTAINATTIRIYPHYDVHCEVKPQLPQLITDWEHKTGVTVKRLTNNQGLLVHGSQIQMIDSDS
MGSDKIHHHHHHMSSTPSNQNIIPIIKKESIVSLFEKGIRQDGRKLTDYRPLSITLDYAKKADGSALVKLGTTMVLAGTKLEIDKPYEDTPNQGNLIVNVELLPLAYETFEPGPPDENAIELARVVDRSLRDSKALDLTKLVIEPGKSVWTVWLDVYVLDYGGNVLDACTLASVAALYNTKVYKVEQHSNGISVNKNEVVGKLPLNYPVVTISVAKVDKYLVVDPDLDEESIMDAKISFSYTPDLKIVGIQKSGKGSMSLQDIDQAENTARSTAVKLLEELKKHLGI
MGSDKIHHHHHHMSTALFHHHSTLQDQLVAIHAALRASLPDIDRIAVAIYDTKTDALHTFIHSSDGRHPLDSYATTLTGVPSLAALATSGRIRVLNDLSPLALTGAHHTQVIAKAYRSSLTVPFYKGKALSGFLFFNSQQPDYFTSRRIDTLALAAEMICSRVIDTVISVEMLTSTIQIAKDISHFRDEETGAHLDRVANYARLIAETMGKEPSALPPGRHPVLDDEFAQMIFLFAPLHDIGKVAIPDHVLLKPGPLTPEERTIMRTHSDKGLAICRRILENVDFISGTQAAMLCDIVHAHHEAWDGSGYPRGLSGADIPLAAAIVTVADVFDALTSARPYKKPWSTEDAFAYLQEKSGQLFNPACVRAFLAHRDDVLAIRARFRDEVIPEAFQTPQTPQSKADKV
MGSDKIHHHHHHMSTANIAPAIRIGVLGFGGLGQAAAKVLAGKREMKLVAVADQKGYAYAAAGLNFKDCIATYQSQGSVGYLEPVGSLGNNSIQDLIDSSQPVDGYFLALPNLPNDFIPSVARQFIQSGWRGVLVDAIKRTSAVEQLIAMKDELQAAGITYMTGCGATPGLLTAAAALAAQSYAEIHQVEITFGVGIANWEAYRATVREDIGHMPGYTVEAARAMTDAEVEALLDKTNGVLTLQNMEHADDVMLELAGIVERDRVTVGGVVDTRNPKKPLSTNVKVTGRTFEGKISTHTFTLGDETSMAANVCGPAFGYLKAGMQLHQRGIHGIFTAAEIMPQFVK
MGSDKIHHHHHHMSTDCLQELENALGRAALVRDEDRALYDVDWRGHLHGRSLAVVCPSRVEDVGETIRIARRHQISIVPQGGNTGLAGGATPDSTGRQLVLCTRRLNRIRGVDLLGNFITVDAGCILQNVQDAAQSHDRLFPLSLAAQGSCTIGGNLATNAGGNAVLRYGNMRELCVGIEAVDAQGRLIGDLKCVRKNNTGYSLRDLLIGSEGTLGIITGAALRLFPRPFAYATALVKCADIDHALQVLGILRAHCADFLSGVEWMSNGSLSNVSKQFLDTRIPPGFDESCLCLVELSGSTPPGLLDDILASALDQAITSGFAADAALASNLAERDAFWALRERLPLAEARCRSLKHDVSLPAGNMSEFVAHLEGYLSSMTLRCAWAGFGHLGDGNLHANVLIPDTMPDALCDCIDEFVYSEVLRLEGSISAEHGIGSRKNDLLHRALDVASLQAMQAVRNALDPHNLFNPGKLLFN
MGSDKIHHHHHHMSTPQFGRKVSLIIGQDSGDALDLSELRFRFDVRRGDLQTPNSARVRVYNVSPDTARRAQREFSRLVLQAGYPGNFGIIFDGTIKQVRRGRENQTDTYLDITAADGDSAYNFAVVNTTLAAGSTPSDHVAAACTAMNPYGVTQGYLPSLPSNPLPRGKVMFGMAREFMRWTARTCQTVWSIQDGKAIMVPETSYMPGEIPVITAETGMVGLPEQTQNGIAIKMLLNPSVKIGRLIQIDNASVQQYEYSLNVGQQAQNERIEQQAKLQDDGFYYVMLAEHYGDTRGNDFYTDVICLAADVTVLPDSFRDKAAVPPDNVIKRFG
MGSDKIHHHHHHMSTPSPALFFNTVNAYQRSAAIKAAVELNVFTAISQGIESSQSLAQKCQTSERGMRMLCDYLVIIGFMTKQAEGYRLTSDSAMFLDRQSKFYVGDAIEFLLSPMITNGFNDLTAAVLKGGTAISSEGTLSPEHPVWVQFAKAMSPMMANPAQLIAQLVNENKIEPLKVLDISASHGLFGIAVAQHNPNAEIFGVDWASVLEVAKENARIQGVASRYHTIAGSAFEVDYGNDYDLVLLPNFLHHFDVATCEQLLRKIKTALAVEGKVIVFDFIPNSDRITPPDAAAFSLVMLATTPNGDAYTFAEYESMFSNAGFSHSQLHSLPTTQQQVIVAYK
MGSDKIHHHHHHMSTSYEISSLPWLSASHELLLKQVRLGSLSHGHLLDVHTQLGGDVLAQSMAKLILCQALTPVGACGQCKACLLVSAGTHPDLHSVAPDGNQIKVDQIRSLCSSLTSTAQQGGKRVAIIYQSERMNTASANALLKTLEEPGKETFLLLQTDRTAALLATVKSRCQTLSITPPSNAEVNAWLKGQQLLPVVPDGAKPHDVTWCLSVVGGPIQLAQSLQSDKYQTLLNYRKEWAMSLSSGHLCGSLLALKDNQLIDALQVLYLYLRHFVLKSNDINAFTKAQVITLAAKIMEMRHKLTTMAAVNTQALCMDYVLAFRQLTHTHR
MGSDKIHHHHHHMSTVSAQEAVSLREAAERRSQFARVPARSVSAPPRKKWFRSKQQLSGAADGMDGSSRAGSQEIVCDEFTKKLVAAITTWHDIHSSLLQLSIERSSNDSNEEHENVSVSSESSWSSASDSESDEDSATGRDSTNNHLSASAARFSISNPDLTNCQIKQMFPEMADHWR
